Data reported in patent publication US6635751B1, “Isolated nucleic acids encoding activated and suppressive forms of ATF6” (HSP Research Institute, Inc., priority 1998, dated 2003).

Legend:
human GRP78 promoter = test: Overexpression of pCGN-ATF6 deletion mutants with reporter pGL3-G78(-132) in HeLa cells, ERSE-mediated transcription; format: cell-based; conditions: for transcription of the luciferase gene from the GRP78 promoter having ERSE: absence of endoplasmic reticulum stress (without TM)
Procedure: HeLa cells in a 24-well plate were transiently transfected with a reporter plasmid pGL-G78(−132) capable of expressing firefly luciferase gene under the control of human GRP78 promoter, together with pCGN vector alone (Vec) or each of ATF6 expression plasmids. Transfected cells were treated with (closed bars) or without (open bars) 2 μg/ml tunicamycin (TM) for 16 hours prior to measuring luciferase activity. The relative activities are indicated as the mean±standard deviations (bars) from four independent experiments (triplicate determinations).
Using HeLa cells co-transfected with the reporter plasmid pGL3-G78(−132) [see Example 1 (FIG. 6, line 2)] resulting from ligation of the firefly luciferase gene to downstream of the human GRP78 promoter ([−132 to +7], numbered on the basis of the translation initiation point taken as +1) and the expression plasmid for the ATF6 C-terminal deletion mutant of Example 10, the effects of each of the overexpressed C-terminal deletion mutants of ATF6 on ERSE-mediated transcriptional activation were evaluated.
Next, in the same manner as in Example 13, the effect of the overexpression of each ATF6 transcription-activating domain deletion mutant on ERSE-mediated transcriptional activation was evaluated by co-transfection with the reporter plasmid pGL3-G78(−132).

GRP78 promoter = test: Co-transfection of pcDNA3.1 effector plasmid (full-length ATF6 or CREB-RP) with GRP78 promoter luciferase reporter in HeLa cells; format: cell-based, human
Procedure: 100 ng of an effector plasmid carrying a full-length ATF6 cDNA or plasmid vector alone was cotransfected into HeLa cells with 1 μg of a reporter plasmid containing luciferase gene fused with intact or mutant GRP promoters. The mutant promoter constructs used correspond to those of FIG. 6. Closed bars and open bars indicated cells treated with or without 2 μg/ml tunicamycin (in the figure, referred to as “TM”) for 16 hours, respectively. Experiments were repeated four times.
An effector plasmid carrying a full-length CREB-RP gene was cotransfected into HeLa cells harboring a reporter plasmid in the same manner as in FIG. 14. Experiments were repeated four times. In the figure, TM indicates tunicamycin.
An entire cDNA was inserted into the HindIII-XhoI sites or BamHI-EcoRI sites immediately downstream of the CMV promoter of pcDNA3.1(+) vector (manufactured by Invitrogen) to construct an effector plasmid for expressing ATF6 or CREB-RP, respectively.
In order to examine whether or not ATF6 is involved in the transcriptional regulation of the GRP gene in mammalian cells, HeLa cells were co-transfected with an effector plasmid carrying a full-length ATF6 cDNA and a reporter plasmid resulting from ligation of the firefly luciferase gene to downstream of the intact GRP promoter or a mutant GRP promoter, and GRP promoter activity was evaluated from the luciferase activity.
Therefore, with these findings in mind, a test was carried out to determine whether or not CREB-RP overexpression affects the activity of the GRP promoter.

[1] = presence of TM (2 μg/ml, 16 hours)

B1: ATF6(151-330): ATF6 amino acids 151st to 330th, transcription-activating domain deletion mutant (protein, UniProt P18850 151-330, looked up, fragment)
chain: DKPVTGPRNKTENGLTPKKKIQVNSKPSIQPKPLLLPAAPKTQTNSSVPAKTIIIQTVPTLMPLAKQQPIISLQPAPTKGQTVLLSQPTVVQLQAPGVLPSAQPVLAVAGGVTQLPNHVVNVVPAPSANSPVNGKLSVTKPVLQSTMRNVGSDIAVLRRQQRMIKNRESACQSRKKKKEY
action on endogenous p50ATF6 in the nucleus (human GRP78 promoter): act dominant-negatively

B2: ATF6: full-length ATF6, 670 amino acids (SEQ ID NO: 32), bZIP transcription factor expressed from pcDNA3.1(+) effector plasmid (protein, listed as Homo sapiens)
chain: MGEPAGVAGTMESPFSPGLFHRLDEDWDSALFAELGYFTDTDELQLEAANETYENNFDNLDFDLDLMPWESDIWDINNQICTVKDIKAEPQPLSPASSSYSVSSPRSVDSYSSTQHVPEELDLSSSSQMSPLSLYGENSNSLSSPEPLKEDKPVTGSRNKTENGLTPKKKIQVNSKPSIQPKPLLLPAAPKTQTNSSVPAKTIIIQTVPTLMPLAKQQPIISLQPAPTKGQTVLLSQPTVVQLQAPGVLPSAQPVLAVAGGVTQLPNHVVNVVPAPSANSPVNGKLSVTKPVLQSTMRNVGSDIAVLRRQQRMIKNRESACQSRKKKKEYMLGLEARLKAALSENEQLKKENGTLKRQLDEVVSENQRLKVPSPKRRVVCVMIVLAFIILNYGPMSMLEQDSRRMNPSVSPANQRRHLLGFSAKEAQDTSDGIIQKNSYRYDHSVSNDKALMVLTEEPLLYIPPPPCQPLINTTESLRLNHELRGWVHRHEVERTKSRRMTNNQQKTRILQGALEQGSNSQLMAVQYTETTSSISRNSGSELQVYYASPRSYQDFFEAIRRRGDTFYVVSFRRDHLLLPATTHNKTTRPKMSIVLPAININENVINGQDYEVMMQIDCQVMDTRILHIKSSSVPPYLRDQQRNQTNTFFGSPPAATEATHVVSTIPESLQ
increase of luciferase expression from GRP78 promoter having intact ERSE sequences over control vector (GRP78 promoter; absence of TM, 100 ng effector plasmid): 5 fold | effect on expression from mutant GRP78 promoter lacking all three ERSE sequences (GRP78 promoter): not affected | effect on reporter expression from intact GRP78 promoter (GRP78 promoter; [1]): further increased

B3: ATF(670): full-length ATF6 with HA epitope at N-terminus, expressed from pCGN-ATF6(670) (protein, UniProt P18850 1-670, looked up)
chain: MGEPAGVAGTMESPFSPGLFHRLDEDWDSALFAELGYFTDTDELQLEAANETYENNFDNLDFDLDLMPWESDIWDINNQICTVKDIKAEPQPLSPASSSYSVSSPRSVDSYSSTQHVPEELDLSSSSQMSPLSLYGENSNSLSSAEPLKEDKPVTGPRNKTENGLTPKKKIQVNSKPSIQPKPLLLPAAPKTQTNSSVPAKTIIIQTVPTLMPLAKQQPIISLQPAPTKGQTVLLSQPTVVQLQAPGVLPSAQPVLAVAGGVTQLPNHVVNVVPAPSANSPVNGKLSVTKPVLQSTMRNVGSDIAVLRRQQRMIKNRESACQSRKKKKEYMLGLEARLKAALSENEQLKKENGTLKRQLDEVVSENQRLKVPSPKRRVVCVMIVLAFIILNYGPMSMLEQDSRRMNPSVSPANQRRHLLGFSAKEAQDTSDGIIQKNSYRYDHSVSNDKALMVLTEEPLLYIPPPPCQPLINTTESLRLNHELRGWVHRHEVERTKSRRMTNNQQKTRILQGALEQGSNSQLMAVQYTETTSSISRNSGSELQVYYASPRSYQDFFEAIRRRGDTFYVVSFRRDHLLLPATTHNKTTRPKMSIVLPAININENVINGQDYEVMMQIDCQVMDTRILHIKSSSVPPYLRDQQRNQTNTFFGSPPAATEATHVVSTIPESLQ
modifications: full-length N-terminal HA tag
transcription of the luciferase gene from the GRP78 promoter having ERSE (human GRP78 promoter): constitutively activated

B4: ATF6(151-366): ATF6 amino acids 151st to 366th, transcription-activating domain deletion mutant (protein, UniProt P18850 151-366, looked up, fragment)
chain: DKPVTGPRNKTENGLTPKKKIQVNSKPSIQPKPLLLPAAPKTQTNSSVPAKTIIIQTVPTLMPLAKQQPIISLQPAPTKGQTVLLSQPTVVQLQAPGVLPSAQPVLAVAGGVTQLPNHVVNVVPAPSANSPVNGKLSVTKPVLQSTMRNVGSDIAVLRRQQRMIKNRESACQSRKKKKEYMLGLEARLKAALSENEQLKKENGTLKRQLDEVVSEN
action on endogenous p50ATF6 in the nucleus (human GRP78 promoter): act dominant-negatively

B5: ATF6(402): HA-tagged ATF6 amino acids 1st to 402nd; retains the transmembrane domain (protein, UniProt P18850 1-402, looked up, fragment)
chain: MGEPAGVAGTMESPFSPGLFHRLDEDWDSALFAELGYFTDTDELQLEAANETYENNFDNLDFDLDLMPWESDIWDINNQICTVKDIKAEPQPLSPASSSYSVSSPRSVDSYSSTQHVPEELDLSSSSQMSPLSLYGENSNSLSSAEPLKEDKPVTGPRNKTENGLTPKKKIQVNSKPSIQPKPLLLPAAPKTQTNSSVPAKTIIIQTVPTLMPLAKQQPIISLQPAPTKGQTVLLSQPTVVQLQAPGVLPSAQPVLAVAGGVTQLPNHVVNVVPAPSANSPVNGKLSVTKPVLQSTMRNVGSDIAVLRRQQRMIKNRESACQSRKKKKEYMLGLEARLKAALSENEQLKKENGTLKRQLDEVVSENQRLKVPSPKRRVVCVMIVLAFIILNYGPMSMLEQDS
modifications: HA tag
notes: HA-tagged ATF6 amino acids 1st to 402nd; retains the transmembrane domain
transcription of the luciferase gene from the GRP78 promoter having ERSE (human GRP78 promoter): constitutively enhanced

B6: ATF6(151-373): ATF6 amino acids 151st to 373rd, transcription-activating domain deletion mutant (protein, UniProt P18850 151-373, looked up, fragment)
chain: DKPVTGPRNKTENGLTPKKKIQVNSKPSIQPKPLLLPAAPKTQTNSSVPAKTIIIQTVPTLMPLAKQQPIISLQPAPTKGQTVLLSQPTVVQLQAPGVLPSAQPVLAVAGGVTQLPNHVVNVVPAPSANSPVNGKLSVTKPVLQSTMRNVGSDIAVLRRQQRMIKNRESACQSRKKKKEYMLGLEARLKAALSENEQLKKENGTLKRQLDEVVSENQRLKVPS
action on endogenous p50ATF6 in the nucleus (human GRP78 promoter): act dominant-negatively

B7: ATF6(330): HA-tagged ATF6 amino acids 1st to 330th; lacks the leucine zipper region (protein, UniProt P18850 1-330, looked up, fragment)
chain: MGEPAGVAGTMESPFSPGLFHRLDEDWDSALFAELGYFTDTDELQLEAANETYENNFDNLDFDLDLMPWESDIWDINNQICTVKDIKAEPQPLSPASSSYSVSSPRSVDSYSSTQHVPEELDLSSSSQMSPLSLYGENSNSLSSAEPLKEDKPVTGPRNKTENGLTPKKKIQVNSKPSIQPKPLLLPAAPKTQTNSSVPAKTIIIQTVPTLMPLAKQQPIISLQPAPTKGQTVLLSQPTVVQLQAPGVLPSAQPVLAVAGGVTQLPNHVVNVVPAPSANSPVNGKLSVTKPVLQSTMRNVGSDIAVLRRQQRMIKNRESACQSRKKKKEY
modifications: HA tag
notes: HA-tagged ATF6 amino acids 1st to 330th; lacks the leucine zipper region
activity compared with ATF6(373) or ATF(366) (human GRP78 promoter; nearly the same expression level): markedly lower activity

B8: CREB-RP: full-length CREB-RP (SEQ ID NO: 34) expressed from pcDNA3.1(+) effector plasmid (protein, listed as Homo sapiens)
chain: MAELMLLSEIADPTRFFTDNLLSPEDWDSTLYSGLDEVAEEQTQLFRCPEQDVPFDGSSLDVGMDVSPSEPPWELLPIFPDLQVKSEPSSPCSSSSLSSESSRLSTEPSSEALGVGEVLHVKTESLAPPLCLLGDDPTSSFETVQINVIPTSDDSSDVQTKIEPVSPCSSVNSEASLLSADSSSQAFIGEEVLEVKTESLSPSGCLLWDVPAPSLGAVQISMGPSLDGSSGKALPTRKPPLQPKPVVLTTVPMPSRAVPPSTTVLLQSLVQPPPVSPVVLIQGAIRVQPEGPAPSLPRPERKSIVPAPMPGNSCPPEVDAKLLKRQQRMIKNRESACQSRRKKKEYLQGLEARLQAVLADNQQLRRENAALRRRLEALLAENSELKLGSGNRKVVCIMVFLLFIAFNFGPVSISEPPSAPISPRMNKGEPQPRRHLLGFSEQEPVQGVEPLQGSSQGPKEPQPSPTDQPSFSNLTAFPGGAKELLLRDLDQLFLSSDCRHFNRTESLRLADELSGWVQRHQRGRRKIPQRAQERQKSQPRKKSPPVKAVPIQPPGPPERDSVGQLQLYRHPDRSQPAFLDAIDRREDTFYVVSFRRGHLLLPAISHNKTSRPKMSLVMPAMAPNETLSGRGAPGDYEEMMQIECEVMDTRVIHIKTSTVPPSLRKQPSPTPGNATGGPLPVSAASQAHQASHQPLYLNHP
effect on reporter expression from intact GRP78 promoter (GRP78 promoter; absence of TM): hardly affected | effect on expression from mutant GRP78 promoter lacking all three ERSE sequences (GRP78 promoter): did not affect | effect on reporter expression from intact GRP78 promoter (GRP78 promoter; [1]): markedly suppressed
